Measurements as given in patent US20240109955A1.

Assays:
Experiment in all cases: cell-based or functional assay
[1] = target: SARS-CoV-2 spike protein, Omicron sublineage BA.4/5 (SARS-CoV-2) (UniProt P0DTC2)
[2] = target: SARS-CoV-2 spike protein, Omicron sublineage BF.7 (SARS-CoV-2) (UniProt P0DTC2)
[3] = target: SARS-CoV-2 spike (S) protein, Omicron sublineage BA.2.75.2 (SARS-CoV-2)
[4] = target: SARS-CoV-2 spike protein, Omicron BQ.1.1 (SARS-CoV-2)
[5] = target: SARS-CoV-2 spike protein, Omicron sublineage BQ.1.1 (SARS-CoV-2) (UniProt P0DTC2)
[6] = target: SARS-CoV-2 spike protein, Omicron BA.4/5 (SARS-CoV-2)
[7] = target: SARS-CoV-2 Omicron BQ.1.1 spike protein (SARS-CoV-2)
[8] = target: SARS-CoV-2 spike (S) protein, Omicron sublineage BA.4/5 (SARS-CoV-2)
[9] = target: SARS-CoV-2 spike (S) protein, Omicron sublineage BQ.1.1 (SARS-CoV-2)
[10] = target: SARS-CoV-2 spike protein, Omicron sublineage XBB1.5 (SARS-CoV-2) (UniProt P0DTC2)
[11] = target: SARS-CoV-2 Omicron BA.2.75.2 spike protein (SARS-CoV-2)
[12] = target: SARS-CoV-2 Omicron BA.4/5 spike protein (SARS-CoV-2)
[13] = target: SARS-CoV-2 Omicron BA.4/5 spike protein ([change]) (SARS-CoV-2) (UniProt P0DTC2)
[14] = target: SARS-CoV-2 Omicron BA.1 spike protein (SARS-CoV-2) (UniProt P0DTC2)
[15] = target: SARS-CoV-2 spike protein, Omicron sublineage BA.2.12.1 (SARS-CoV-2) (UniProt P0DTC2)
[16] = target: SARS-CoV-2 spike protein, Omicron sublineage BA.2 (SARS-CoV-2) (UniProt P0DTC2)
[17] = target: SARS-CoV-2 Omicron BA.2.75.2 spike protein (SARS-CoV-2) (UniProt P0DTC2)
[18] = target: SARS-CoV-2 Omicron BQ.1.1 spike protein (SARS-CoV-2) (UniProt P0DTC2)
[19] = target: SARS-CoV-2 spike protein, Omicron sublineage XBB (SARS-CoV-2) (UniProt P0DTC2)
[20] = target: SARS-CoV-2 Omicron XBB spike protein (SARS-CoV-2) (UniProt P0DTC2)

A19-46.1 (antibody), sequence (VH): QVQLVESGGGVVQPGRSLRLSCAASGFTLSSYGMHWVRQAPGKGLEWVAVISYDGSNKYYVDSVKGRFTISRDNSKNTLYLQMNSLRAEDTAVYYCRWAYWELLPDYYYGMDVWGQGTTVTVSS
A19-46.1 (antibody), sequence (VL): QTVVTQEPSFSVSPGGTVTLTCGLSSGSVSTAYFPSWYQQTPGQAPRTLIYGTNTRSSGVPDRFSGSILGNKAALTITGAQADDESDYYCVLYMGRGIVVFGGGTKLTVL
A19-46 (antibody), sequence (VH): as the sequence (VH) above
A19-46 (antibody), sequence (VL): as the sequence (VL) above
MX492 (A19-46 x A23-58H/B1-182L) (bispecific antibody), sequence (chain): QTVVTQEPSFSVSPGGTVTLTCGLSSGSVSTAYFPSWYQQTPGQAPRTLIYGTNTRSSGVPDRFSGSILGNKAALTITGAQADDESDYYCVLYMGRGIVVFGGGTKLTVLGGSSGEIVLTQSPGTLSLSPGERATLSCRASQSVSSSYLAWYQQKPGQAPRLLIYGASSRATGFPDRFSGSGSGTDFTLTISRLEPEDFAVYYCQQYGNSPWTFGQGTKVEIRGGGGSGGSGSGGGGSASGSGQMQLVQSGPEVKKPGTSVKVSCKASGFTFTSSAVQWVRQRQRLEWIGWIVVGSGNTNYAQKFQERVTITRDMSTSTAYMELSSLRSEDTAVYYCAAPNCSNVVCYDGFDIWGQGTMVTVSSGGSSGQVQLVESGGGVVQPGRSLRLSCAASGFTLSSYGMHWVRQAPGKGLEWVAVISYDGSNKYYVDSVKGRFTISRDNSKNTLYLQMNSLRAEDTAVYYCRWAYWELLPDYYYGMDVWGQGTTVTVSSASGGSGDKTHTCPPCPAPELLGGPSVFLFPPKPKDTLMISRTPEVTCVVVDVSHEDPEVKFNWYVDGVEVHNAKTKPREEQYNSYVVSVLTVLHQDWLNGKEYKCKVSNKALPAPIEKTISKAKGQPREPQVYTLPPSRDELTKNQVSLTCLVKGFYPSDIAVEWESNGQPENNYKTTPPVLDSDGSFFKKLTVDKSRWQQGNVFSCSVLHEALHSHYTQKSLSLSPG
MX413 (A19-61 x A23-58H/B1-182L) (bispecific antibody), sequence (chain): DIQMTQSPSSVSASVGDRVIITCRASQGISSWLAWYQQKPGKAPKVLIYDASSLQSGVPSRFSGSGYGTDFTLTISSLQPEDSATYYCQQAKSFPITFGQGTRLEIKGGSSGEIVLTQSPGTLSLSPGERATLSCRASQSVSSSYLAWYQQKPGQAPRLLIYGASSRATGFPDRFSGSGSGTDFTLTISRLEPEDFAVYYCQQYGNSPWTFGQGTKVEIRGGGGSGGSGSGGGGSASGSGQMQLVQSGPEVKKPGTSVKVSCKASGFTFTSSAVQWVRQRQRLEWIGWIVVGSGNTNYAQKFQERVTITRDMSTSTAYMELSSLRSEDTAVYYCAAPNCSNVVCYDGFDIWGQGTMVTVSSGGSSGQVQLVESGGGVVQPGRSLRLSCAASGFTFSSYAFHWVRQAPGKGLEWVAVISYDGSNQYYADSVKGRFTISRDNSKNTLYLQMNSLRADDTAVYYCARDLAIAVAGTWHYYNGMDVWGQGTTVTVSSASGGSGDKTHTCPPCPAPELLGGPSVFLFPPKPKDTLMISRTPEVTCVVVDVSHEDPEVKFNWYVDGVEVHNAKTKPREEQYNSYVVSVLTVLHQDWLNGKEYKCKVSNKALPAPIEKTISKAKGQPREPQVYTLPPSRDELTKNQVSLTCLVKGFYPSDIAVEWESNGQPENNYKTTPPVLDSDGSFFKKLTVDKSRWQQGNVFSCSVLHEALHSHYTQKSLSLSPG

Substance: A19-46 (antibody)
- IC50, pseudovirus neutralization [1]: > 10000 nM
- IC80, pseudovirus neutralization [1]: > 10000 nM
- IC50, pseudovirus neutralization [2]: 5300 nM
- IC80, pseudovirus neutralization [2]: > 10000 nM
- IC50, pseudovirus neutralization [3]: > 10 µg/mL
- IC80, pseudovirus neutralization [3]: > 10 µg/mL
- IC50, pseudovirus neutralization [4]: 0.386 µg/mL
- IC80, pseudovirus neutralization [4]: 1.11 µg/mL
- IC50, pseudovirus neutralization [5]: 386 nM
- IC80, pseudovirus neutralization [5]: 1110 nM
- IC50, pseudovirus neutralization [6]: > 10 µg/mL
- IC80, pseudovirus neutralization [6]: > 10 µg/mL
- IC50, pseudovirus neutralization [7]: 0.386 µg/mL
- IC80, pseudovirus neutralization [7]: 1.11 µg/mL
- IC50, pseudovirus neutralization [8]: > 10 µg/mL
- IC80, pseudovirus neutralization [8]: > 10 µg/mL
- IC50, pseudovirus neutralization [9]: 0.386 µg/mL
- IC80, pseudovirus neutralization [9]: 1.11 µg/mL
- IC50, pseudovirus neutralization [10]: > 10000 nM
- IC80, pseudovirus neutralization [10]: > 10000 nM
- IC50, pseudovirus neutralization [11]: > 10 µg/mL
- IC80, pseudovirus neutralization [11]: > 10 µg/mL
- IC50, pseudovirus neutralization [12]: > 10 µg/mL
- IC80, pseudovirus neutralization [12]: > 10 µg/mL

Substance: A19-46.1 (antibody)
- IC50, pseudovirus neutralization [13]: > 10000 nM
- IC80, pseudovirus neutralization [13]: > 10000 nM
- IC50, pseudovirus neutralization [14]: 77 nM
- IC80, pseudovirus neutralization [14]: 211 nM

Substance: A19-61.1 (antibody)
- IC50, pseudovirus neutralization [13]: 19 nM
- IC80, pseudovirus neutralization [13]: 31 nM
- IC50, pseudovirus neutralization [14]: > 10000 nM
- IC80, pseudovirus neutralization [14]: > 10000 nM

Substance: A23-58.1 (antibody)
- IC50, pseudovirus neutralization [15]: 100 nM
- IC80, pseudovirus neutralization [15]: 504 nM
- IC50, pseudovirus neutralization [16]: 263 nM
- IC80, pseudovirus neutralization [16]: 1080 nM

Substance: A23-58H/B1-182L hybrid antibody
- IC50, pseudovirus neutralization [13]: > 10000 nM
- IC80, pseudovirus neutralization [13]: > 10000 nM
- IC50, pseudovirus neutralization [14]: 53 nM
- IC80, pseudovirus neutralization [14]: 90 nM

Substance: B1-182.1 (antibody)
- IC50, pseudovirus neutralization [15]: 165 nM
- IC80, pseudovirus neutralization [15]: 1380 nM
- IC50, pseudovirus neutralization [16]: 320 nM
- IC80, pseudovirus neutralization [16]: 1210 nM

Substance: MX413 (A19-61 x A23-58H/B1-182L) (bispecific antibody)
- IC50, pseudovirus neutralization [13]: 4 nM
- IC80, pseudovirus neutralization [13]: 8 nM
- IC50, pseudovirus neutralization [14]: 1290 nM
- IC80, pseudovirus neutralization [14]: 6540 nM

Substance: MX492 (A19-46 x A23-58H/B1-182L) (bispecific antibody)
- IC50, pseudovirus neutralization [13]: > 10000 nM
- IC80, pseudovirus neutralization [13]: > 10000 nM
- IC50, pseudovirus neutralization [14]: 1 nM
- IC80, pseudovirus neutralization [14]: 3 nM

Substance: S2E12 (antibody)
- IC50, pseudovirus neutralization [15]: 15.6 nM
- IC80, pseudovirus neutralization [15]: 46.6 nM
- IC50, pseudovirus neutralization [16]: 9.9 nM
- IC80, pseudovirus neutralization [16]: 48.2 nM

Substance: bebtelovimab (antibody)
- IC50, pseudovirus neutralization [15]: 8.52 nM
- IC80, pseudovirus neutralization [15]: 14.8 nM
- IC50, pseudovirus neutralization [17]: 0.00567 µg/mL
- IC80, pseudovirus neutralization [17]: 0.0207 µg/mL
- IC80, pseudovirus neutralization [13]: 1 nM
- IC50, pseudovirus neutralization [18]: > 10 µg/mL
- IC80, pseudovirus neutralization [18]: > 10 µg/mL
- IC50, pseudovirus neutralization [19]: > 10000 nM
- IC80, pseudovirus neutralization [19]: > 10000 nM
- IC50, pseudovirus neutralization [1]: 1.88 nM
- IC80, pseudovirus neutralization [1]: 3.74 nM
- IC50, pseudovirus neutralization [2]: 3.28 nM
- IC80, pseudovirus neutralization [2]: 26.9 nM
- IC50, pseudovirus neutralization [14]: 1 nM
- IC80, pseudovirus neutralization [14]: 7 nM
- IC50, pseudovirus neutralization [5]: > 10000 nM
- IC80, pseudovirus neutralization [5]: > 10000 nM
- IC50, pseudovirus neutralization [16]: 14.3 nM
- IC80, pseudovirus neutralization [16]: 18.5 nM
- IC50, pseudovirus neutralization [20]: > 10 µg/mL
- IC80, pseudovirus neutralization [20]: > 10 µg/mL
- IC50, pseudovirus neutralization [10]: > 10000 nM
- IC80, pseudovirus neutralization [10]: > 10000 nM
